Positions count from the first letter of the chain named.
How the values were obtained:
[1] = target: T1, phi29 DNA polymerase G410C/P562C (Bacteriophage phi29, UniProt P03680 1-575, G410C;P562C); assay: EMSA
T1 sequence: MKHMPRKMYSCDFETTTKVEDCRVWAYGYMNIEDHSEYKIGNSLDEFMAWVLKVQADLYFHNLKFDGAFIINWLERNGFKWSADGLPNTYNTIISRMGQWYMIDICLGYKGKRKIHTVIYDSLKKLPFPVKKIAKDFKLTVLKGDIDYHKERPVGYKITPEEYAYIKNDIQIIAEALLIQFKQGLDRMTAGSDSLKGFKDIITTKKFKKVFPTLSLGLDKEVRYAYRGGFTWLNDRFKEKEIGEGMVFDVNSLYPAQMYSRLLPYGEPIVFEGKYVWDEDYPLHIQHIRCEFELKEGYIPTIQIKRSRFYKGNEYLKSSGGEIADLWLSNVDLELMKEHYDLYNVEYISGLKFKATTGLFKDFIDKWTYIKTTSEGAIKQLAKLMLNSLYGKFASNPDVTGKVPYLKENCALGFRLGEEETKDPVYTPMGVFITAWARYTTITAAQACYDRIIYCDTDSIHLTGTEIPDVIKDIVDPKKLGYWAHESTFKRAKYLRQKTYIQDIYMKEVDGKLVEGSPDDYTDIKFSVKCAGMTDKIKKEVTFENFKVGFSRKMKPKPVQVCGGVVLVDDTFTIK

[2] = target: T2, phi29 DNA polymerase wild-type (Bacteriophage phi29, UniProt P03680 1-575); assay: EMSA
T2 sequence: T1 sequence with C410G, C562P

B1: sp1/sp1c+6 (15/21mer primer/template) (dsDNA)
DNA 1: GATCACAGTGAGTAC
DNA 2: TCTATTGTACTCACTGTGATC
binding signal [1]: 3 % of wild-type (unit presumed)
binding result [2]: binds

From publication PMC2615600
